Three substances from paper PMC6044475 can be followed below.

Common to all, as to test: SEC
On the technique in general: SEC sorts molecules by how far they enter the pores of the column.

The target in test [1] is Eca E318Q (Enterococcus casseliflavus).
Test [2] concerns the target Eca T320A (Enterococcus casseliflavus).
The target of test [3] is Eca Y396A (Enterococcus casseliflavus).

Broadly, the stoichiometry N is a count of units in the complex or per binding partner. In turn, Eca E318Q (natural protein) yielded a stoichiometry N in test [1] of 2. In test [2], Eca T320A (natural protein) yielded a stoichiometry N of 2. Turning to Eca Y396A (natural protein), the stoichiometry N in test [3] is 2.
